Experimental data as given in publication PMC4446439.

The substances below were run on LSD1Δ1 (KDM1);CoRESTΔ1 (human;human) (assay: HI-FI fluorescence quenching). Details: 20 mM Tris-HCl pH 7.6, 50 mM NaCl, 5 mM DTT, 5% glycerol, 0.01% NP40, 0.01% CHAPS, 100 ug/ml BSA, 2 mM EDTA, room temperature, 15 min.
Work on 159 bp nucleosome 7N7, H3 K27C yielded a Kd of 236 nM. With 207 bp nucleosome 31N31, H3 A21C the Kd was 3 nM. With 181 bp nucleosome 18N18, H3 A21C the Kd was 3.8 nM. 169 bp nucleosome 12N12, H3 K27C gave a Kd of 282 nM. In the case of 163 bp nucleosome 9N9, H3 K27C, the Kd is reported as 237 nM. 147 bp nucleosome 1N1, H3 A21C gave a Kd of 81 nM. 177 bp nucleosome 16N16, H3 K27C showed a Kd of 214 nM. In the case of 207 bp nucleosome 31N31, H3 K27C, the Kd is reported as 263 nM. Substance 185 bp nucleosome 20N20, H3 K27C has a Kd of 135 nM. 157 bp nucleosome 6N6, H3 A21C showed a Kd of 17.6 nM. Work on 157 bp nucleosome 6N6, H3 K27C yielded a Kd of 470 nM. 147 bp nucleosome 1N1, H3 K27C gave a Kd of 1640 nM. In the case of 151L nucleosome 5N1, H3 K27C, the Kd is reported as 718 nM. For 177L nucleosome 31N1, H3 K27C, the Kd was 769 nM. For 161L nucleosome 15N1, H3 K27C, the Kd was 406 nM. 151 bp nucleosome 3N3, H3 K27C showed a Kd of 716 nM. 155 bp nucleosome 5N5, H3 K27C gave a Kd of 419 nM. Work on 161 bp nucleosome 8N8, H3 K27C yielded a Kd of 232 nM. For 165 bp nucleosome 10N10, H3 K27C, the Kd was 205 nM. 181 bp nucleosome 18N18, H3 K27C gave a Kd of 100 nM.
